Data as given in patent US20240018502A1.
Changes are numbered by the printed parent chain. Names may count otherwise.

B1: MTSP-1 protease domain Q38H/I41S/D60bT/F60eG/D96P/F97N/T98G/F99L/C122S/G151Q/Q175L/Q192D (enzyme)
chain: VVGGTDADEGEWPWQVSLHALGHGHSCGASLISPNWLVSAAHCYIDTRGGRYSDPTQWTAFLGLHDQSQRSAPGVQERRLKRIISHPFFNPNGLDYDIALLELEKPAEYSSMVRPISLPDASHVFPAGKAIWVTGWGHTQYGGTQALILQKGEIRVINQTTCENLLPQLITPRMMCVGFLSGGVDSCDGDSGGPLSSVEADGRIFQAGVVSWGDGCAQRNKPGVYTRLPLFRDWIKENTGV
B2: MTSP-1 protease domain Q38Y/D60bT/F60eR/Y60gW/D96M/F97N/T98G/F99L/C122S/G151N/Q175L/Q192D (enzyme)
chain: B1 chain with H23Y, S26I, G50R, Y52W, P91M, Q145N
B3: MTSP-1 protease domain Q38Y/I41S/D60bT/Y60gW/D96M/F97N/T98G/F99L/C122S/G151N/Q175L/Q192D (enzyme)
chain: B1 chain with H23Y, G50F, Y52W, P91M, Q145N
B4: MTSP-1 Q38H/I41A/D60bV/F60eR/Y60gW/D96I/F97N/T98G/F99L/C122S/G151N/Q175L/Q192D (enzyme)
chain: B1 chain with S26A, T47V, G50R, Y52W, P91I, Q145N
B5: MTSP-1 protease domain Q38M/I41S/F60eH/Y60gW/D96Y/F97N/T98G/F99L/C122S/G151N/Q175L/Q192D (enzyme)
chain: B1 chain with H23M, T47D, G50H, Y52W, P91Y, Q145N
B6: MTSP-1 protease domain Q38H/I41S/D60bT/F60eK/D96V/F97N/T98G/F99L/C122S/G151N/Q175L/Q192D (enzyme)
chain: B1 chain with G50K, P91V, Q145N
B7: MTSP-1 protease domain I41S/D60bT/F60eR/Y60gW/D96M/F97N/T98G/F99L/C122S/G151N/Q175L/Q192D (enzyme)
chain: B1 chain with H23Q, G50R, Y52W, P91M, Q145N
B8: MTSP-1 protease domain Q38K/I41G/D60bT/F60eG/Y60gW/D96P/F97N/T98G/F99L/C122S/G151N/Q175L/Q192D (enzyme)
chain: B1 chain with H23K, S26G, Y52W, Q145N
B9: MTSP-1 protease domain Q38E/I41S/D60bV/F60eK/Y60gW/D96P/F97N/T98G/F99L/C122S/G151N/Q175L/Q192D (enzyme)
chain: B1 chain with H23E, T47V, G50K, Y52W, Q145N
B10: MTSP-1 protease domain Q38Y/I41S/F60eR/Y60gW/D96M/F97N/T98G/F99L/C122S/G151N/Q175L/Q192D (enzyme)
chain: B1 chain with H23Y, T47D, G50R, Y52W, P91M, Q145N
B11: MTSP-1 protease domain Q38E/I41S/D60bV/F60eK/Y60gW/D96M/F97N/T98G/F99L/C122S/G151N/Q175L/Q192D (enzyme)
chain: B1 chain with H23E, T47V, G50K, Y52W, P91M, Q145N
B12: MTSP-1 protease domain Q38E/I41S/D60bW/F60eG/D96M/F97N/T98G/F99L/C122S/G151N/Q175L/Q192D (enzyme)
chain: B1 chain with H23E, T47W, P91M, Q145N
B13: MTSP-1 protease domain Q38H/I41S/F60eT/Y60gW/D96M/F97N/T98G/F99L/C122S/G151N/Q175L/Q192D (enzyme)
chain: B1 chain with T47D, G50T, Y52W, P91M, Q145N
B14: MTSP-1 protease domain Q38K/I41G/D60bT/F60eG/Y60gW/D96L/F97N/T98G/F99L/C122S/G151N/Q175L/Q192D (enzyme)
chain: B1 chain with H23K, S26G, Y52W, P91L, Q145N
B15: MTSP-1 protease domain Q38Y/I41S/D60bT/F60eR/Y60gW/D96M/F97N/T98G/F99L/C122S/G151N/Q175L/Q192D (enzyme)
chain: B1 chain with H23Y, G50R, Y52W, P91M, Q145N
B16: MTSP-1 protease domain Q38H/I41S/D60bT/F60eK/Y60gF/D96M/F97N/T98G/F99L/C122S/G151N/Q175L/Q192D (enzyme)
chain: B1 chain with G50K, Y52F, P91M, Q145N
B17: MTSP-1 protease domain Q38Y/I41S/D60bV/F60eR/Y60gF/D96M/F97N/T98G/F99L/C122S/G151N/Q175L/Q192D (enzyme)
chain: B1 chain with H23Y, T47V, G50R, Y52F, P91M, Q145N
B18: MTSP-1 protease domain Q38H/I41A/D60bV/F60eR/Y60gW/D96F/F97D/ins97aE/T98G/F99M/C122S/G151N/Q175L/Q192R (enzyme)
chain: VVGGTDADEGEWPWQVSLHALGHGHACGASLISPNWLVSAAHCYIDVRGRRWSDPTQWTAFLGLHDQSQRSAPGVQERRLKRIISHPFFNFDEGMDYDIALLELEKPAEYSSMVRPISLPDASHVFPAGKAIWVTGWGHTQYGGTNALILQKGEIRVINQTTCENLLPQLITPRMMCVGFLSGGVDSCRGDSGGPLSSVEADGRIFQAGVVSWGDGCAQRNKPGVYTRLPLFRDWIKENTGV
B19: MTSP-1 protease domain Q38H/I41A/D60bV/F60eR/Y60gW/D96F/F97E/ins97aS/T98G/F99M/C122S/G151N/Q175L/Q192G (enzyme)
chain: B18 chain with D92E, E93S, R189G
B20: MTSP-1 protease domain Q38H/I41A/D60bV/F60eR/Y60gW/D96F/F97S/ins97aH/T98G/F99L/C122S/G151N/Q175L/Q192G (enzyme)
chain: B18 chain with D92S, E93H, M95L, R189G
B21: MTSP-1 protease domain Q38H/I41A/D60bV/F60eR/Y60gW/D96F/F97Y/ins97aE/T98G/F99M/C122S/G151N/Q175L/Q192R (enzyme)
chain: B18 chain with D92Y
B22: MTSP-1 protease domain Q38H/I41A/D60bV/F60eR/Y60gW/D96F/F97Y/ins97aN/T98G/F99M/C122S/G151N/Q175L/Q192G (enzyme)
chain: B18 chain with D92Y, E93N, R189G
B23: MTSP-1 protease domain Q38H/I41A/D60bV/F60eR/Y60gW/D96F/F97E/ins97aT/T98G/F99M/C122S/G151N/Q175L/Q192G (enzyme)
chain: B18 chain with D92E, E93T, R189G
B24: MTSP-1 protease domain Q38H/I41S/D60bT/F60eS/Y60gW/D96Y/F97N/ins97aE/T98S/F99L/C122S/G151H/Q175L/Q192D (enzyme)
chain: B18 chain with A26S, V47T, R50S, F91Y, D92N, G94S, M95L, N146H, R189D
B25: MTSP-1 protease domain Q38H/I41A/D60bV/F60eR/Y60gW/D96W/F97D/ins97aT/T98G/F99L/C122S/G151N/Q175L/Q192G (enzyme)
chain: B18 chain with F91W, E93T, M95L, R189G
B26: MTSP-1 protease domain Q38H/I41S/D60bT/F60eS/Y60gW/D96F/F97Y/ins97aD/T98G/F99L/C122S/G151H/Q175L/Q192D (enzyme)
chain: B18 chain with A26S, V47T, R50S, D92Y, E93D, M95L, N146H, R189D
B27: MTSP-1 protease domain Q38H/I41S/D60bT/F60eS/Y60gW/D96Y/F97R/ins97aD/T98G/F99L/C122S/G151H/Q175L/Q192D (enzyme)
chain: B18 chain with A26S, V47T, R50S, F91Y, D92R, E93D, M95L, N146H, R189D
B28: MTSP-1 protease domain Q38H/I41A/D60bV/F60eR/Y60gW/D96W/F97D/ins97aD/T98G/F99L/C122S/G151N/Q175L/Q192G (enzyme)
chain: B18 chain with F91W, E93D, M95L, R189G
B29: MTSP-1 protease domain Q38H/I41A/D60bT/F60eK/Y60gF/F97T/ins97aE/T98G/F99L/C122S/H143R/G151N/Q175L/Q192V (enzyme)
chain: B18 chain with V47T, R50K, W52F, F91D, D92T, M95L, H139R, R189V
B30: MTSP-1 protease domain Q38H/I41S/D60bT/F60eS/Y60gW/D96F/F97S/ins97aD/T98G/F99L/C122S/G151H/Q175L/Q192D (enzyme)
chain: B18 chain with A26S, V47T, R50S, D92S, E93D, M95L, N146H, R189D
B31: MTSP-1 Q38H/I41S/D60bT/F60eS/Y60gW/F97D/ins97aV/T98P/F99L/C122S/G151H/Q175L/Q192E (enzyme)
chain: B18 chain with A26S, V47T, R50S, F91D, E93V, G94P, M95L, N146H, R189E

Molecular target: plasma purified human complement protein C3 (human) (UniProt P01024)
Sequence (P01024 23-667, chain 1 of 2): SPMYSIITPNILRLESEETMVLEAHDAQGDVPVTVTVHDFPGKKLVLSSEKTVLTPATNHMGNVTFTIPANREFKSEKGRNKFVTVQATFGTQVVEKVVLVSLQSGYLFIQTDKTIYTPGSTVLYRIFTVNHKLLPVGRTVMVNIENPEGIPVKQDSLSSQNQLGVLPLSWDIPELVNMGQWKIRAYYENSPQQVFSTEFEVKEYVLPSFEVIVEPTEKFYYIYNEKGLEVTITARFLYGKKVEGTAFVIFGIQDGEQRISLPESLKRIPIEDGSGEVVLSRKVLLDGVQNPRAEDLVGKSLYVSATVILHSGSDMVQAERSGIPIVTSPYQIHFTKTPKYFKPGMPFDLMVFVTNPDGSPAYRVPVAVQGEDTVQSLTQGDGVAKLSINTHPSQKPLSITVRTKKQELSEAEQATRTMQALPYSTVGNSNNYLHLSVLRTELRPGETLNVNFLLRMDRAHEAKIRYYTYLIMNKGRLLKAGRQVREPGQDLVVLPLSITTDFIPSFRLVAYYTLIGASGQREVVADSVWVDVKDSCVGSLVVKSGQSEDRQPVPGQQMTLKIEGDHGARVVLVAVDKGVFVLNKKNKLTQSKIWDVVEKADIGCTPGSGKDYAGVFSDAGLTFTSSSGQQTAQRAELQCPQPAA
Sequence (P01024 672-1663, chain 2 of 2): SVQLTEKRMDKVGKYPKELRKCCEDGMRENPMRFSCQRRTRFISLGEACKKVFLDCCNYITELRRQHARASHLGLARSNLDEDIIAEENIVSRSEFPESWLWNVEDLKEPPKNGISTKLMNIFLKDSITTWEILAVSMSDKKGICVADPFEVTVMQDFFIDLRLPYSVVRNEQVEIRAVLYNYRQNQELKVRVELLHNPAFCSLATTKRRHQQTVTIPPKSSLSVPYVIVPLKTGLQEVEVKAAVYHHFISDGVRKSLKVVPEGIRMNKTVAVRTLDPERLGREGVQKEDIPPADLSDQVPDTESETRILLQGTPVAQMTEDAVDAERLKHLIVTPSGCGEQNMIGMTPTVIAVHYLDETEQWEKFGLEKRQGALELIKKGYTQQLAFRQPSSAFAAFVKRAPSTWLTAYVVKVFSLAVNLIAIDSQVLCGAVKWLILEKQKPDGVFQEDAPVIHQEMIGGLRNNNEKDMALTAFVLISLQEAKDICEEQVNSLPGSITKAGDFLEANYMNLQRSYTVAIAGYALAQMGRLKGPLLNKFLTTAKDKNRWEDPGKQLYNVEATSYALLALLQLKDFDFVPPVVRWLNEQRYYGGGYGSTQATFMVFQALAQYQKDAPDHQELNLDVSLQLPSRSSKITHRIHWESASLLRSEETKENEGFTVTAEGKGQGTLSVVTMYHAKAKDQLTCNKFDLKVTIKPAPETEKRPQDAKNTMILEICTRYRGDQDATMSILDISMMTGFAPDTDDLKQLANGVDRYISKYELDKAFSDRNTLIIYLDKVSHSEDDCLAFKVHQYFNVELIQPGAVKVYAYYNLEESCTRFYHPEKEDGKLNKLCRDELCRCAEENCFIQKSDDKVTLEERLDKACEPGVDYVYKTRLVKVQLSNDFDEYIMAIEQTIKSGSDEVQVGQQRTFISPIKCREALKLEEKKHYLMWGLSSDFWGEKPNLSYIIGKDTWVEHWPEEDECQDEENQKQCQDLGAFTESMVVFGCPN
Assay: cell-based or functional assay

| Binder | EC50 hC3 cleavage [nM] | EC50 of hC3 cleavage [nM] |
| --- | --- | --- |
| B1 | 34.2 | – |
| B2 | 47.7 | – |
| B3 | 3.08 | – |
| B4 | – | 2.87 |
| B5 | 21.6 | – |
| B6 | 13.3 | – |
| B7 | 9.47 | – |
| B8 | 27.4 | – |
| B9 | 45.9 | – |
| B10 | 10.4 | – |
| B11 | 19.1 | – |
| B12 | 22.3 | – |
| B13 | 35.7 | – |
| B14 | 12.5 | – |
| B15 | 5.12 | – |
| B16 | 20.6 | – |

| Binder | EC50 hC3 cleavage [nM] | EC50 of hC3 cleavage [nM] |
| --- | --- | --- |
| B17 | 5.25 | – |
| B18 | 13.1 | – |
| B19 | 21.3 | – |
| B20 | 3.14 | – |
| B21 | 7.16 | – |
| B22 | 3.76 | – |
| B23 | 16.9 | – |
| B24 | 4.53 | – |
| B25 | 4.9 | – |
| B26 | 3.13 | – |
| B27 | 5.71 | – |
| B28 | 5.28 | – |
| B29 | 24.5 | – |
| B30 | 5.17 | – |
| B31 | – | 6.68 |
